Results: patent US20060034860A1 (CELLVIR, published 2006)

Columns and labels:
[1] = biological target: T1, BRCA1 assoc. Prot.1 (BAP1), prey17662 / prey145885, prey fragments (Human, UniProt Q92560 1-729); experiment: yeast two-hybrid screen, bait NC_v1 (pB6), Human CEMC7 Random Primed prey library; table of bait-prey interactions
T1 construct: also called hBAP1; Ubiquitin Hydrolase
T1 sequence: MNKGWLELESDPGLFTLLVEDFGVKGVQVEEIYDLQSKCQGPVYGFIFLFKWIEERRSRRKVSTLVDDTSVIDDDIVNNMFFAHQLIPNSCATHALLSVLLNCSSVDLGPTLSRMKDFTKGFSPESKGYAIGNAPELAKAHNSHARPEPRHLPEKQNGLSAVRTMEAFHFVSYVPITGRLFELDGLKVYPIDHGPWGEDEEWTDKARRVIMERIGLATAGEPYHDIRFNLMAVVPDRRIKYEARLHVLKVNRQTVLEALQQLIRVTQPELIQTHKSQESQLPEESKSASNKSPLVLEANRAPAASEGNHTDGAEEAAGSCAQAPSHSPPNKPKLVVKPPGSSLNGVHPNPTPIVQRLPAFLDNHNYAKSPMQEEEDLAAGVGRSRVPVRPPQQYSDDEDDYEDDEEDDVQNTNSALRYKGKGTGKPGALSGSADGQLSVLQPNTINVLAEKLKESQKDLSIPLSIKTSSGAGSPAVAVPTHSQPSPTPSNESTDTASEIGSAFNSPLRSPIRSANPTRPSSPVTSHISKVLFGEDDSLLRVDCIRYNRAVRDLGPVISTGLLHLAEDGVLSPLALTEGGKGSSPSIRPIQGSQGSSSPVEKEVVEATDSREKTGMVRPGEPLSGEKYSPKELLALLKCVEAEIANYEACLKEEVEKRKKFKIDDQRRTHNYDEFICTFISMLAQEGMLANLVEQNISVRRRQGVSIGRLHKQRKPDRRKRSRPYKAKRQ

[2] = biological target: T2, Casein Kinase 2, beta polypeptide (CSNK2B), prey47239, prey fragments (Human, UniProt P67870 2-215); experiment: yeast two-hybrid screen, bait PR_v1 (pB27), Human CEMC7 Random Primed prey library; table of bait-prey interactions
T2 construct: also called hCSNK2B; regulatory beta chain of CK2
T2 sequence (P67870 2-215 limits assumed): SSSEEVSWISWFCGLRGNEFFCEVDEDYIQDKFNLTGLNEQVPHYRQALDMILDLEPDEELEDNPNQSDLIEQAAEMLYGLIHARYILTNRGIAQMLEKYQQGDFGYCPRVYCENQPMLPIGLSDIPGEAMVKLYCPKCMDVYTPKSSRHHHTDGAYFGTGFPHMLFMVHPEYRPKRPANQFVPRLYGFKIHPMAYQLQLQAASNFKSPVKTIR

[3] = biological target: T3, Human UBE1 (prey030679), prey fragments (Human, UniProt P22314 2-1058); experiment: yeast two-hybrid screen, bait PR_v1 (pB27), CEMC7 oligo dT primed cDNA prey library; table of bait-prey interactions
T3 sequence: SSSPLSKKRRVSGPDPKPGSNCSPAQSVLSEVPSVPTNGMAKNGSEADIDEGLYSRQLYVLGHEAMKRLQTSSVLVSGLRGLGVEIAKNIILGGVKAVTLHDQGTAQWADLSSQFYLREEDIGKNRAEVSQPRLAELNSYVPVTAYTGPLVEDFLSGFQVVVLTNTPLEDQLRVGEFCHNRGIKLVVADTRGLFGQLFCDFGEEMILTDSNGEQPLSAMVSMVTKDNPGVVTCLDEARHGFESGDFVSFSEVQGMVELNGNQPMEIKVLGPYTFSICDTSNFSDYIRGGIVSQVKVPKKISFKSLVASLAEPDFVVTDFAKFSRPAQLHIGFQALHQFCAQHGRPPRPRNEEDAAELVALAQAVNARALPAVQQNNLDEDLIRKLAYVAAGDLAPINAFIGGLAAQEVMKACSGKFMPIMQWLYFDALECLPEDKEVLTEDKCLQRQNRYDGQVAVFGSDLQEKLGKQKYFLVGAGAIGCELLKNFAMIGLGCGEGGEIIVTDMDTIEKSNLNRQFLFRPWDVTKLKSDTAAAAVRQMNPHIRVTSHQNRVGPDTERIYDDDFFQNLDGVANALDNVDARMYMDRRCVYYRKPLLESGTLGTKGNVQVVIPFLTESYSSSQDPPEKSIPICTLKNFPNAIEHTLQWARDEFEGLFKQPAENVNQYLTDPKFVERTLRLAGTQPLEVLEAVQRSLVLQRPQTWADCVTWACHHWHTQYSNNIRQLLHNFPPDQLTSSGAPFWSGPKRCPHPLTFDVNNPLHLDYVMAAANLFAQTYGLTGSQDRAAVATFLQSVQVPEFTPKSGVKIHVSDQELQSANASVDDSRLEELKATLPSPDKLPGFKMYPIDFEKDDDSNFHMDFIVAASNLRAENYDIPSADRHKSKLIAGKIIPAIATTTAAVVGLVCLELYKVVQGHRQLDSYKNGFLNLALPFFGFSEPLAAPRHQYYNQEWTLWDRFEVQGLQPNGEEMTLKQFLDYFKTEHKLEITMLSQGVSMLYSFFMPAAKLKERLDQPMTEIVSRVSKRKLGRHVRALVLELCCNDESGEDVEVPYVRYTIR

[4] = biological target: T4, Human AKAP1 (prey026778), A kinase anchor protein 1 (Human, UniProt Q92667 30-903); experiment: yeast two-hybrid screen, bait RT_v1, CEMC7 random primed cDNA prey library; table of bait-prey interactions
T4 construct: Prey fragments (vector pP6) in the primary screen
T4 sequence: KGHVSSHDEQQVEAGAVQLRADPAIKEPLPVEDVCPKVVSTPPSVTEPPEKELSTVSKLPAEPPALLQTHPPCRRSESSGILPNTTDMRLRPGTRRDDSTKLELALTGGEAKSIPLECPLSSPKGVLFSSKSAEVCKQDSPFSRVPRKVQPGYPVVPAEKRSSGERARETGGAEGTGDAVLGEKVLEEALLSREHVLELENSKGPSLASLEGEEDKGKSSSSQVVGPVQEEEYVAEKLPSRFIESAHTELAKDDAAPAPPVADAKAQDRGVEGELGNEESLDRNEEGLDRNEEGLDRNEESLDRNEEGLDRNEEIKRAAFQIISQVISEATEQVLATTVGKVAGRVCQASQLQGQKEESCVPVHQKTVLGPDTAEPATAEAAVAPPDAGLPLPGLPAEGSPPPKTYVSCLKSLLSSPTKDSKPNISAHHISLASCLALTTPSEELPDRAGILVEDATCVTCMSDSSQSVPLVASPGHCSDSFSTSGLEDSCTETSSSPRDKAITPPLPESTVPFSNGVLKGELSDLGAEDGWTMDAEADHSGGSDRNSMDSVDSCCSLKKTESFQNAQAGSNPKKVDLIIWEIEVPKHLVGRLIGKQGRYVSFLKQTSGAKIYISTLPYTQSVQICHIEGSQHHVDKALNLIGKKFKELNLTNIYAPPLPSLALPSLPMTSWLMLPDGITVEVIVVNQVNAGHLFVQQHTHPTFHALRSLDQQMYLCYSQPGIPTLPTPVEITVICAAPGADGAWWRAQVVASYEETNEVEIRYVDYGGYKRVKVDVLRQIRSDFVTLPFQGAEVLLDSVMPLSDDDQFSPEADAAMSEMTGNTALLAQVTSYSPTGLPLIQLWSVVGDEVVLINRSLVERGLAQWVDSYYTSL

B1: HIV-1 Nucleocapsid NCp7, bait NC_v1 (other)
chain: MQRGNFRNQRKTVKCFNCGKEGHIAKNCRAPRKKGCWKCGKEGHQMKDCTERQAN
B1: binds [1].

B2: HIV-1 protease, bait PR_v1 (enzyme)
chain: not shown
B2: binds [2]; binds [3].

B3: HIV-1 reverse transcriptase p66 subunit, bait RT_v1 (enzyme)
chain: not shown
notes: also called p66 RT; HIV-1 p66 RT
B3: binds [4].
